Experimental data taken from the supplement of paper PMC12338614.
± gives the uncertainty stated by the source.

B1: library; numbered along this chain (parent)
chain: MEVVDPQQLGMFTEGELMSVGMDTFIHRIDSTEVIYQPRRKRAKLIGKYLMGDLLGEGSYGKVKEVLDSETLCRRAVKILKKKKLRRIPNGEANVKKEIQLLRRLRHKNVIQLVDVLYNEEKQKMYMVMEYCVCGMQEMLDSVPEKRFPVCQAHGYFCQLIDGLEYLHSQGIVHKDIKPGNLLLTTGGTLKISDLGVAEALHPFAADDTCRTSQGSPAFQPPEIANGLDTFSGFKVDIWSAGVTLYNITTGLYPFEGDNIYKLFENIGKGSYAIPGDCGPPLSDLLKGMLEYEPAKRFSIRQIRQHSWFRKKHPPAEAPVPIPPSPDTKDRWRSMTVVPYLEDLHGADEDEDLFDIEDDIIYTQDFTVPGQVPEEEASHNGQRRGLPKAVCMNGTEAAQLSTKSRAEGRAPNPARKACSASSKIRRLSACKQQ

Variants of: B1
Assay: STK11 functional score (HeLa growth suppression), rescaled enrichment; synonymous median = 1, nonsense median = 0 (normalised score)
Details: with HeLa; variant type: missense
Summary of the method: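 HeLa cells carrying an AAVS1 landing pad received codon-optimised STK11 libraries made by codon randomisation (POPCode), integrated by Bxb1, with three regions each transfected three times. Integrants that were BFP-negative and mCherry-positive were sorted by FACS 4–5 days after electroporation and then grown for about two weeks. Tiled amplicons from gDNA were sequenced on NextSeq at ~2 million reads per tile. The functional score is a wild-type-corrected log ratio of post- to pre-selection counts, rescaled to the synonymous and nonsense medians, merged across codons and replicate transfections, and given a bootstrapped error.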

Variant | STK11 functional score
S307G | 0.664 ± 0.35
V95E | 0.927 ± 0.43
V95H | 1.64 ± 0.19
V150C | 0.762 ± 0.23
K146H | 1.49 ± 0.46
K416L | 0.986 ± 0.17
A225R | 1.07 ± 0.44
P281R | 0.969 ± 0.13
P281W | 0.551 ± 0.072
C278H | 1.06 ± 0.35
C278E | 1.66 ± 0.21
T244C | 1.32 ± 0.29
T244E | -0.168 ± 0.099
V197C | 1.55 ± 0.22
L263S | 1.18 ± 0.19
L263R | 1.39 ± 0.24
F309G | -0.12 ± 0.08
M22R | 1.65 ± 0.38
P38H | 1.11 ± 0.58
D352P | 1.6 ± 0.14
F204H | 1.67 ± 0.41
H168M | 0.519 ± 0.14
I361N | 1.27 ± 0.24
I361H | 1.21 ± 0.46

Variant | STK11 functional score
I361E | 1.52 ± 0.26
N380A | 1.51 ± 0.23
N380I | 1.04 ± 0.29
T185H | 0.484 ± 0.13
N247S | 1.3 ± 0.2
L117Q | 1.33 ± 0.57
Q137P | 1.19 ± 0.32
A198S | 0.503 ± 0.23
K83N | 1.3 ± 0.39
C210A | 1.33 ± 0.73
A218T | 0.88 ± 0.47
A218K | 1.28 ± 0.32
D327I | 1.6 ± 0.27
E291C | 1.24 ± 0.24
E291L | 0.796 ± 0.14
K122F | 1.25 ± 0.21
F298V | 0.839 ± 0.14
F298L | 0.608 ± 0.15
F298A | 1.55 ± 0.15
T212N | 0.481 ± 0.46
K262V | 1.29 ± 0.3
K262I | 0.763 ± 0.14
K262D | 1.38 ± 0.2
K262L | 1.13 ± 0.13

Variant | STK11 functional score
K96D | 1.27 ± 0.25
K96H | 1.33 ± 0.072
I29E | 1.4 ± 0.7
R28L | 0.637 ± 0.15
S325A | 1.05 ± 0.5
K44V | 0.967 ± 0.15
K44F | 1.34 ± 0.26
K44Q | 1.24 ± 0.31
S419H | 1.63 ± 0.18
Q220R | 0.808 ± 0.13
Y253E | 1 ± 0.41
E293F | 1.07 ± 0.11
E293D | 1.43 ± 0.47
E293A | 1.03 ± 0.15
E293I | 1.16 ± 0.096
V34S | 1.29 ± 0.16
I424Y | 1.12 ± 0.26
I424F | 1.04 ± 0.086
M18H | 1.37 ± 0.18
M18I | 0.652 ± 0.32
P314M | 1.62 ± 0.15
E407D | 1.56 ± 0.25
E407C | 1.21 ± 0.12
F219A | 0.528 ± 0.14

Variant | STK11 functional score
P324H | 1.48 ± 0.15
P324T | 1.15 ± 0.23
E349G | 0.983 ± 0.3
R310Y | 1.53 ± 0.17
R310S | 1.54 ± 0.22
H379D | 1.18 ± 0.35
H379W | 0.788 ± 0.29
H379V | 1.46 ± 0.26
H379R | 1.36 ± 0.18
H313S | 1.17 ± 0.15
R106F | 1.56 ± 0.17
R75C | 1.55 ± 0.091
I248Y | 0.287 ± 0.15
I248P | -0.0931 ± 0.13
E351F | 1.19 ± 0.47
P294A | 1.39 ± 0.21
G288S | 0.938 ± 0.2
Q159E | 1.25 ± 0.55
Q159R | 1.03 ± 0.33
S193N | 1.61 ± 0.2
L80N | 0.951 ± 0.37
L80H | 0.878 ± 0.092
N94W | 0.162 ± 0.14
N94P | 1.21 ± 0.64

Variant | STK11 functional score
H154G | 0.183 ± 0.15
A316S | 0.768 ± 0.23
A406R | 1.59 ± 0.28
I172V | 1.21 ± 0.39
G227L | 0.694 ± 0.15
V133A | 1.41 ± 0.4
D30R | 1.69 ± 0.13
D30C | 1.44 ± 0.51
N181Q | 0.708 ± 0.31
N181S | -0.0295 ± 0.073
N181I | -0.248 ± 0.1
T336L | 1.39 ± 0.15
V66A | 1.4 ± 0.092
K81N | 1.37 ± 0.34
K81Q | 0.882 ± 0.35
K81P | 0.992 ± 0.18
V4H | 1.65 ± 0.25
V4T | 1.06 ± 0.15
S378Y | 1.35 ± 0.35
I260A | 0.468 ± 0.26
I260G | 1.1 ± 0.25
I99Y | 0.0269 ± 0.081
I99E | 1.65 ± 0.16
I99T | 1.45 ± 0.43

Variant | STK11 functional score
K423W | 1.49 ± 0.15
K423S | 1.56 ± 0.13
P149A | 1.18 ± 0.12
V77I | 1.4 ± 0.13
K191I | 1.19 ± 0.51
S59G | 1.65 ± 0.34
S59I | 1.31 ± 0.42
V243D | -0.0994 ± 0.17
G163F | -0.122 ± 0.17
I274Q | 1.62 ± 0.2
I274R | 0.816 ± 0.21
H345C | 1.2 ± 0.49
K41E | 1.42 ± 0.65
E70R | 1.67 ± 0.32
G381F | 1.13 ± 0.42
Y118Q | 1.52 ± 0.14
E376I | 1.54 ± 0.28
I161C | 1.03 ± 0.48
I161D | -0.303 ± 0.097
Q371H | 1.15 ± 0.68
Q371G | 1.03 ± 0.36
S142C | 1.17 ± 0.2
Q302W | 0.804 ± 0.68
Q302A | 1.45 ± 0.33

Variant | STK11 functional score
F255I | 1.36 ± 0.38
V390L | 1.22 ± 0.21
D343A | 1.47 ± 0.29
D343S | 1.35 ± 0.16
L201C | 1.12 ± 0.33
L201M | 0.914 ± 0.17
P203A | 0.904 ± 0.61
I46P | 0.555 ± 0.13
G242H | 0.0155 ± 0.32
C158A | 1.37 ± 0.59
P6S | 1.52 ± 0.17
P6L | 0.99 ± 0.12
T249N | 0.652 ± 0.27
L353I | 1.19 ± 0.15
L400E | 1.58 ± 0.21
A241P | 0.702 ± 0.45
L427V | 1.21 ± 0.27
S213I | 0.902 ± 0.14
A397F | 1.35 ± 0.38
G279I | 1.41 ± 0.4
G279N | 1.57 ± 0.16
G279Y | 1.43 ± 0.33
P319M | 1.39 ± 0.12
